Columns and labels:
[1] = target: FGF receptor 2b (FGFR2b) naturally expressed on 4MBr-5 rhesus monkey bronchial epithelial cells (rhesus monkey); assay: cell-based or functional assay
[2] = target: FGFR2 receptor endogenously expressed on mammary adenocarcinoma MCF7 cells (UniProt P21802); assay: cell-based or functional assay
FGFR2 receptor endogenously expressed on mammary adenocarcinoma MCF7 cells, sequence (P21802 22-821): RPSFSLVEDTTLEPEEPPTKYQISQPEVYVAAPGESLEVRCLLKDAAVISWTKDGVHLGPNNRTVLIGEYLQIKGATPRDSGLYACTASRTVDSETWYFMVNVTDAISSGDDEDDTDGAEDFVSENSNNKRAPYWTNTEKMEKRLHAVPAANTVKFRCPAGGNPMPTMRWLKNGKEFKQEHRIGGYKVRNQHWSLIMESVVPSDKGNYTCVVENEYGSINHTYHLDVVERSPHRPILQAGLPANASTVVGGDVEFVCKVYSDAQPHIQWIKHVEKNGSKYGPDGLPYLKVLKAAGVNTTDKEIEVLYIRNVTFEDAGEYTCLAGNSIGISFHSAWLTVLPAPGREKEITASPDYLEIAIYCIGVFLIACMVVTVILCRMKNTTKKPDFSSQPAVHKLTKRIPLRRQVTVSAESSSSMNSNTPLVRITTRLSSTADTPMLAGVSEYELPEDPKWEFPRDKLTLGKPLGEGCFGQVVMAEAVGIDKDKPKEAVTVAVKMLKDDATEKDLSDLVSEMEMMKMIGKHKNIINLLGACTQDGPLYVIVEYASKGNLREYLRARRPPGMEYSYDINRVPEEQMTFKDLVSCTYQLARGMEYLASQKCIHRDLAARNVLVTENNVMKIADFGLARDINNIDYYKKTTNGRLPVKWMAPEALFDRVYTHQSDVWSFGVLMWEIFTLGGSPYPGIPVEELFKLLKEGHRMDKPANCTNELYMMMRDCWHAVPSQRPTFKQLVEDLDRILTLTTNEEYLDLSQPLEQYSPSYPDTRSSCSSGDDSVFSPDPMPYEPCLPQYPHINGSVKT

| Substance | ED50, proliferation of 4MBr-5 cells (resazurin) [1] | ED50, proliferation of lung epithelial 4MBr-5 cells (resazurin) [1] | ED50 (ng/mL) determined using 4MBr-5 cells; no preincubation (control) [1] | ED50 (ng/mL) determined using 4MBr-5 cells; protein preincubated at 37° C. for 1 day [1] | ED50 (ng/mL) determined using 4MBr-5 cells; protein preincubated at 37° C. for 3 days [1] | ED50 (ng/mL) determined using 4MBr-5 cells; protein preincubated at 37° C. for 7 days [1] | pKrox24 (MapERK)-DsRed reporter induction in MCF7 cells, 100 ng/mL, 24 hr (times, against FGF10-wt) [2] |
| --- | --- | --- | --- | --- | --- | --- | --- |
| FGF10 from Falco peregrinus (FGF10-Fp) (ligand) | 12.7 ng/mL | – | – | – | – | – | – |
| FGF10 single-point mutant L152F (ligand) | – | 1.4 ng/mL | – | – | – | – | – |
| FGF10-Fp+L152F (single point variant of FGF10-Fp) (ligand) | 6.1 ng/mL | – | – | – | – | – | – |
| FGF10-STAB (4-point mutant of FGF10: V123I+L152F+Q175E+N181D) (ligand) | 0.21 ng/mL | – | 0.37 ng/mL | 1 ng/mL | 0.26 ng/mL | 11.1 ng/mL | 2.5 |
| FGF10-wt (recombinant mature human FGF10, Leu40-Ser208, with N-terminal His-tag and thrombin cleavage site) (ligand) | – | 0.8 ng/mL | 0.95 ng/mL | 12.5 ng/mL | 21.1 ng/mL | 34.8 ng/mL | – |
| FGF10^69-208+L152F (ligand) | 1.9 ng/mL | – | – | – | – | – | – |
